Laboratory results: patent US20140050743A1, “BINDING PROTEINS TO INHIBITORS OF COAGULATION FACTORS” (BAYER INTELLECTUAL PROPERTY GMBH, priority 2011, published 2014)
Changes are numbered by the printed parent chain.

B1: M14-G07-3: antibody, Vh SEQ ID NO: 131, Vl SEQ ID NO: 132 (antibody, listed as Homo Sapiens, V domains shown)
VH: EVQLLESGGGLVQPGGSLRLSCAASGFTFSSYAMSWVRQAPGKGLEWVSGISGSGGSTYYADSVKGRFTISRDNSKNTLYLQMNSLRAEDTAVYYCARQGRTSFYLDVWGQGTLVTVSS
VL: QSVLTQPPSASGTPGQRVTISCSGSSRNIGSYYVYWYQQLPGTAPKLLIYDNRQRPSGVPDRFSGSKSGTSASLAISGLRSEDEADYYCVAWDDSWSGTWVFGGGTKLTVL
B2: M14-G07-4: antibody, Vh SEQ ID NO: 133, Vl SEQ ID NO: 134 (antibody, listed as Homo Sapiens, V domains shown)
VH: B1 VH with T28R, S49G
VL: B1 VL with S31A, W96Y
B3: M14-G07-5: antibody, Vh SEQ ID NO: 135, Vl SEQ ID NO: 136 (antibody, listed as Homo Sapiens, V domains shown)
VH: B1 VH with T28R
VL: B1 VL with W96Y
B4: M14-G07-6: antibody, Vh SEQ ID NO: 137, Vl SEQ ID NO: 138 (antibody, listed as Homo Sapiens, V domains shown)
VH: B1 VH with T28R, V37I, S49G
VL: B1 VL with W96Y
B5: M14-G07-7: antibody, Vh SEQ ID NO: 139, Vl SEQ ID NO: 140 (antibody, listed as Homo Sapiens, V domains shown)
VH: B1 VH with T28R, S49G
VL: B1 VL with R53N, T99H
B6: M14-G07-8: antibody, Vh SEQ ID NO: 141, Vl SEQ ID NO: 142 (antibody, listed as Homo Sapiens, V domains shown)
VH: B1 VH with S49G
VL: B1 VL with S31A, Y32F, W96Y
B7: M14-G07-9: antibody, Vh SEQ ID NO: 143, Vl SEQ ID NO: 144 (antibody, listed as Homo Sapiens, V domains shown)
VH: B1 VH with T28R, S49G
VL: B1 VL with Y32F, R53N, D94V, W96L, T99H
B8: M14-G07-10: antibody, Vh SEQ ID NO: 145, Vl SEQ ID NO: 146 (antibody, listed as Homo Sapiens, V domains shown)
VH: B1 VH with S49G
VL: B1 VL with Y32F, R53N, T99H
B9: M14-G07-11: antibody, Vh SEQ ID NO: 147, Vl SEQ ID NO: 148 (antibody, listed as Homo Sapiens, V domains shown)
VH: B1 VH with T28R, S49G
VL: B1 VL with S31A, Y32F, T99H
B10: M14-G07-12: antibody, Vh SEQ ID NO: 149, Vl SEQ ID NO: 150 (antibody, listed as Homo Sapiens, V domains shown)
VH: B1 VH
VL: B1 VL with R53N
B11: M14-G07-13: antibody, Vh SEQ ID NO: 151, Vl SEQ ID NO: 152 (antibody, listed as Homo Sapiens, V domains shown)
VH: B1 VH with S49G
VL: B1 VL with Y32F
B12: M14-G07-14: antibody, Vh SEQ ID NO: 153, Vl SEQ ID NO: 154 (antibody, listed as Homo Sapiens, V domains shown)
VH: B1 VH with S49G
VL: B1 VL with W96Y
B13: M14-G07-15: antibody, Vh SEQ ID NO: 155, Vl SEQ ID NO: 156 (antibody, listed as Homo Sapiens, V domains shown)
VH: B1 VH with S49G
VL: B1 VL with R27S, R53N, T99H
B14: M14-G07-16: antibody, Vh SEQ ID NO: 157, Vl SEQ ID NO: 158 (antibody, listed as Homo Sapiens, V domains shown)
VH: B1 VH with T28R, S49G
VL: B1 VL with Y32F, W96Y
B15: M14-G07-17: antibody, Vh SEQ ID NO: 159, Vl SEQ ID NO: 160 (antibody, listed as Homo Sapiens, V domains shown)
VH: B1 VH with S49G
VL: B1 VL with S31A, Y32F
B16: M14-G07-18: antibody, Vh SEQ ID NO: 161, Vl SEQ ID NO: 162 (antibody, listed as Homo Sapiens, V domains shown)
VH: B1 VH with T28R, S49G
VL: B1 VL with R53N
B17: M14-G07-19: antibody, Vh SEQ ID NO: 163, Vl SEQ ID NO: 164 (antibody, listed as Homo Sapiens, V domains shown)
VH: B1 VH
VL: B1 VL with Y32F, W96L, T99H
B18: M14-G07-20: antibody, Vh SEQ ID NO: 165, Vl SEQ ID NO: 166 (antibody, listed as Homo Sapiens, V domains shown)
VH: B1 VH with T28R, S49G
VL: B1 VL with R27S, S31A, R53N, W96L
B19: M14-G07-21: antibody, Vh SEQ ID NO: 167, Vl SEQ ID NO: 168 (antibody, listed as Homo Sapiens, V domains shown)
VH: B1 VH with T28R, S49G, R101E
VL: B1 VL with R27S, Q38H, R53N
B20: M14-G07-22: antibody, Vh SEQ ID NO: 169, Vl SEQ ID NO: 170 (antibody, listed as Homo Sapiens, V domains shown)
VH: B1 VH with S49G
VL: B1 VL with R27S, S31A, R53N
B21: M14-G07-23: antibody, Vh SEQ ID NO: 171, Vl SEQ ID NO: 172 (antibody, listed as Homo Sapiens, V domains shown)
VH: B1 VH with T28R, S49G
VL: B1 VL with S31A, Y32F, R53N, W96L
B22: M14-G07-24: antibody, Vh SEQ ID NO: 173, Vl SEQ ID NO: 174 (antibody, listed as Homo Sapiens, V domains shown)
VH: B1 VH
VL: B1 VL with R53N, W96L
B23: M14-G07-25: antibody, Vh SEQ ID NO: 175, Vl SEQ ID NO: 176 (antibody, listed as Homo Sapiens, V domains shown)
VH: B1 VH with T28R, S49G
VL: B1 VL with R27S, S31A, R53N, W96Y
B24: M14-G07-26: antibody, Vh SEQ ID NO: 177, Vl SEQ ID NO: 178 (antibody, listed as Homo Sapiens, V domains shown)
VH: B1 VH with S49G, R101K
VL: B1 VL with R27S, Y32F, R53N, W96Y
B25: M14-G07-27: antibody, Vh SEQ ID NO: 179, Vl SEQ ID NO: 180 (antibody, listed as Homo Sapiens, V domains shown)
VH: B1 VH with S49G
VL: B1 VL with R27S, S31A, R53N, W96Y, T99H

Test: ELISA-based activity assay of antibody variants without a competition step
Format: binding
Parameters: key: +++: Variants with an average ratio above reference plus 2×SD; +/−: variants with a ratio below reference minus 2×SD; ++: All variants with a performance in between both thresholds; −: Variants with a ratio below 0.5
Conditions: Table 10, multiple substitutions within M14-G07, variant to reference ratio (reference 2-fold improved over wt)
Experimental: To determine the activity of the mutated antibody variants on compound from Example 1K an equilibrium or dissociation limited ELISA assay format was used. Briefly, MTP plates (Nunc Maxisorp black, 460518) were coated with 4 μg/ml streptavidin (Calbiochem, 189730) diluted in coating buffer (Candor Bioscience GmbH, 121500) and incubated over night at 4° C. After washing with PBST, plates were blocked with 100% Smart Block (Candor Bioscience GmbH, 113500) in PBST for 1 h at room temperature and the washing step was repeated. Plates were incubated with compound from Example 1K at varying concentrations (0.3-200 nM) for 1 h at 37° C., washed with PBST and antibody fragments were immobilized by adding 25 μl of the crude bacterial cultures for 1 h at room temperature. After washing with PBST a competition step or the immediate detection was performed. […] For the detection of the residually bound Fabs a HRP-coupled anti-lambda antibody (Sigma, A5175) diluted in 10% Smart Block in PBST was added for 1 h at room temperature. After washing 10 μM Amplex Red (Invitrogen, A12222) were added and incubated for 10 to 30 min at room temperature followed by measurement of the fluorescence signal.
Provided in Table 9 are several examples of single and/or double amino acid substitutions introduced into the heavy and/or the light chain of M14-G07 (wt). Performance of the variants was analyzed in quadruples in the ELISA without a competition step and the FXa deinhibition assay (FXa DIA). In the ELISA, averages were calculated and normalized to the respective average expression level. Overall performance of variants was evaluated by comparing the variant to wt ratio from 2-3 independent experiments. Variants with an average ratio above wt plus 2×SD (standard deviation of the ratio) were considered as improved and are marked with “++”, whereas variants with a ratio below wt minus 2×SD were considered as reduced in their binding affinity and are marked with “−”. All variants with a performance in between both thresholds are marked with “+/−”. Variants with average fluorescence counts below the negative control (non-expressing cells) plus 3×SD were considered as non-binding and marked with “−−” with none of the variants fulfilling this criteria. In the FXa deinhibition assay averages were calculated and overall performance of variants was evaluated by comparing the variant to wt ratio from 2-3 independent experiments. Variants with an average ratio above wt plus 2×SD were considered as improved and are marked with “++”, whereas variants with a ratio below wt minus 2×SD were considered as either reduced in their binding affinity or non-binding and are marked with “−−”. All variants with a performance in between both thresholds are marked with “+/−”. Variants not analyzed are marked with “nd” (not determined). CDRs were defined according to Kabat.
Provided in Table 10 are examples of combined amino acid substitutions within M14-G07 antibodies. While not every combination is provided in Table 10, it is contemplated that the anti-rivaroxaban antibody may comprise any combination of modifications provided. Variant performance was analyzed in quadruples in the ELISA without a competition step. Averages were calculated, average background signals determined on a streptavidin coated plate without compound from Example 1K were subtracted if the compound from Example 1K concentration used for coating was below 10 nM and signals were normalized to the respective average expression level. Overall performance of variants was evaluated by comparing the variant to reference ratio from 2-3 independent experiments using a 2-fold improved reference variant as compared to wt. Variants with an average ratio above reference plus 2×SD are marked with “+++”, whereas variants with a ratio below reference minus 2×SD are marked with “+/−”. All variants with a performance in between both thresholds are marked with “++”. […]

| Molecule | ELISA |
| --- | --- |
| B1 | +++ |
| B2 | +++ |
| B3 | +++ |
| B4 | +++ |
| B5 | +++ |
| B6 | +++ |
| B7 | +++ |
| B8 | +++ |
| B9 | +++ |
| B10 | +++ |
| B11 | +++ |
| B12 | +++ |
| B13 | +++ |
| B14 | +++ |
| B15 | +++ |
| B16 | +++ |
| B17 | +++ |
| B18 | +++ |
| B19 | +++ |
| B20 | +++ |
| B21 | +++ |
| B22 | +++ |
| B23 | +++ |
| B24 | +++ |
| B25 | +++ |
